Assay results: a protein production outcome set (Wang et al. 2014)

Assay: label from the status in PepcDB records

Row | Sequence | protein production
1 | MSLDPAHTPDPAHPHDQEAAHAEDPARAIGSARLLDVDPLLDDPGTRIVVCCGSGGVGKTTTAAALGLRAAERGRKVVVLTIDPARRLAQSMGIDSLDNIPRRVKGIDDSASGELHAMMLDMKRTFDEIVEAHADRERAAAILSNPFYQSLSAGFAGTQEYMAMEKLGQLRARDEWDLIIVDTPPSRSALDFLDAPKRLGSFLDGKLIRLLTAPAKLGGRAGMKFLNVGMSMMTGTLGKLLGGQLLKDVQTFVAAMDTTFGGFRTRADATYKLLQAPGTAFLVVAAPERDALREAAYFVERLAAEDMPLAGLVLNRVHGSGAAQLSAERALAAAENLDLAADPGSTENLEESRIVDQEGGKAGLRNSPDTYGSSESPADLTPADQTPASSEGSPATDGAVEQLTAGLLILHAERMQLLSREQRTRDRFAALHPEVAVAEVAALPGDVHDLTGLRDIGDRLAANRPELPTSPGGALEHHHHHH | not failed
2 | MVRNSMKAEYDIDHLPHQTFYGDYSKTLVPMNKNSQIITKIKPKIRIIHIFAPEIINTDVKNFRTLVQSLTGKPEITKTGSKKKITNTNFPAPPGLPQDSGQEHTAELDNRIIGSHVVKEEWGSSSNTNTYFDFDGLIDLDEDDNIFSSRWFDLQQQ | failed
3 | MKTEMLHTQEDILKMLDSLLRPAEPFWNEFYENREKDVPFFENVPDENLVSYIQKERVLKGKVLELGCGPGRNAIYLANEGFDVTAVDLSVEGINWAKERALAKGVEIHFICDSIFNLEVQNEFDFVYDSGCLHHIPPHRRINYVDLIKNSLKSGGYFGLTCFAAGDLDERNGSEITDWDVYREWSLQGGLAYSEEKLREIFKELEVIEIRRMKQMKQPNEMFGESFLWTALFKKK | failed
4 | MNNIRQLTKDEYPKAIELSWQVFTITGKEDFNNEGLEFFKSFIYNKKCINEIIFYGSFDNEALTGILGIKSNGKHISLFFIKPEYHRHGLGKKLFHYASTLHPSIETTVNSSTYAIPFYRSLGFAVVGEKQNYHGLCSTPMRRYHAVFVQKNKYTLRTWQTEDAHSLVQELNNKKIWDNCRNVFPHPYRLEHAETFIDLIQKKEGIHDFCIEVNGKAVGNIGFTPGTDVECFNAEVGYVIGEKYWNQGIVTDALQEAIYHYFTYTNTIRIFALVFEHNLPSMRVLEKAGFNKVGIMTKSIFKNGHFTNAHLFELLKNVLEHHHHHH | failed
5 | MVRLDLPWDLVDEILSRLPATSLGRLRFTCKRWNALFKDPEFITKQFHKAAKQDLVLMLSNFGVYSMSTNLKEIPNNIEIAQVFHCNGLLLCSTEEGNKTKLVVVNPCTGQTRWIEPRTDYNYNHDIALGYGNNSTKKSYDSYKILRITYGCKLVEIFELKSNSWRVLSKVHPNVEKHYYGGVSFKGNTYWLSYTKFNILSFDFTTETFRSVPLPFLYQDGFVTLALSVVREEQLLLLRSRFDMGQVGIWMCNKIDTETVLSWSKSFTLEFDSLRDLPVMSILRIFIEEDKKVIVVDCDDRWKENMIYIVGKNGFKKLSYEKDRSNLWRLPFFFSYVPSLVGLYPPM | failed
6 | MSIKPKIMISSLDAERLEILLETLSQNAFPGRDDLEAELARAEVVDPEEIPPTVVTMNSTVRFRVESSAEEFCLTLVYPKDVDTSGEKISILAPVGSALLGLAQGDEIEWPKPGGGVLRVRIVEVTYQPERSGEYYR | not failed
7 | MMKQNPILITGGTGTVGSRIASRLIKLGYRVRIASRKKGALADAEYVYFNWKYASSFTPALEQVKQIYLVAPVGVFDPAPYVLPFLKEAKRLGAKRVVMQSASVVSENGPVFGALHQAVREFPEWTVLRPSYFMQNFINVQHRMSIQTEGRITTASGEGKLGFIDADDIAETAVRALIDDVPHQTHHILTGPEALSYAEAAEIIGAAAGRRVEHVSISRSELQHKMEAGGLPADYAHFMAKLDEAISHGAEHRVTDTVKRVTGKEPRSLSEFAAAHAAYWTSFWTELEHHHHHH | failed
8 | MWPASRCASDSSLQCGRPNDRIPMSDIAVLINTAVAVLAAVLLIVRFRVNPVISLILASVYLGLAVGLGVEKTVKTITGGFGEIMVDVGLLIAFGVLMGSILNQSGAIRRLVEHLLKTFGPKRLPYTMGLAIGTVLQSIFLDVLLVISAPLARKLAPKIGKLGTARMATAMAIALECGIVFTVPGVASLALAGLLNVPLGKMLLFGLLLVIPTIIISIAIMTFLFRRGFWNEAKDEDHTFVAEEDSEGEEPTDGGAATVPPTANSERGTAASSAQPAGGSVAVVERERKEAPLILLFAPLLTSLLLIGAGAILEILEISMPWLQLLGEPVIALLIGLIGTCLVTRAAIGQKKVEEAIAVGFKESGQILILTGVGGSLAATVAAAGLGDILGGFFSASTVAPLLVVWAIAAVLHIAVGSVTLSAITAAGLLAPIAPAIGLDPVLLALAAGAGSLFMVHVTSNTFWLLQSLLGQSVRGALKSVTVGVSVASVVAILLILPMSLLF | failed
9 | MRARRRVMAKREALRAGSKASRQATPNSQPELEGKLFAEQDAGERTHEKLVFVPRVDIYETETGLVVVADLPGVGPEGLEVTLEKRVLSIYGRVKEDTPEGYSQAYREYEVGDFERQFTLSGDFEINGIEANIKDGVLHLAIPRAPEAAAKRIEVRSVS | failed
10 | RLQPIIVPGWQGSGPGHWQTHWSRTLPHAVRLQQRDWHQPQRAEWVAALAAAVDAAPTPVLLVAHSLGCLVSAALPIALRAKVAGALLVAPADVERPGAPAAIAAFGPVPRQSLPYQSVVIASDDDPYCRLERARQFAQDWGSRLVVLQGAGHINADSQLGAWPQGLKQLAALRRRACW | failed
11 | MSFAIEALGQGRFDEVEILCREILKEVPDHFHATHLLGLRAFDGGWLEDAQFLLERAVALDPRSPDAHGNLGAVYFALERFKDARACQEKAIALKPNCPITLTNLGNTLLHLGLAKEAIELHERAIRLKPNYADAFCNRGMAELMIGQFERAGVDFDRALSFQPRHAEAIAGKAMVSLELRHFEAAEAAFEASLALKPGSPRILVQRGRLHLTLYRLEQAAADFDAALAQSPRNELALCWRAQVDIMVRNTAGAMAGVKTLLEVNPQSEAGMSLLASCHANQGDIATALEYLDAALAIAPDFPEAIGYKIFVLDYLPEADFVVQQAARKYWWDQIGAKLPQRTLSPRDLDPDRRIVIGYVASEFRQHSAAYTLLPVMRHHDHAKFKIVCYSCWPLQDGMTEKFKACADVWVEAAQFSDDELADRIQADGIDILIDVSGHTTGSRLHVFSRKPAPIQVTGFGHATGTGLQTMDYVLADPIFIPQSARHLLAEKVYDLPSLITIDPIQDVPPSELPMLRNGYVTFGVFNRILKISDEAIRVWSKVMREVAGSKIIIKNGLLDDPMLRDGLIARFVAQGIAEENVICMGSTSRREHLRAFANVDISLDTFPQNGGISTWESLYAGVPVVAKLGNGSSSRAGGSIVAAVGLGDWVADDDEGYAAIACKFAAQPAHLAKLRADLPAQIANSPAGNVEIYTREVEAGYRQFWRDYCAEASETCDVA | failed
12 | MSDEQHDSVWPPPGLDFSKPTIARVYDALLGGKDNFEADRALADYACKHIPGLKESAIENRKVLVRGVRFLAGEAGISQFLDLGSGLPTVQNTHEVAQSVNPDARVVYVDIDPMVLTHGRALLAKDPNTAVFTADVRDPEYILNHPDVRRMIDFSRPAAIMLVGMLHYLSPDVVDRVVGAYRDALAPGSYLFMTSLVDTGLPAQQKLARITRENLGEGWARTPEEIERQFGDFELVEPGVVYTALWRPDEPVDPDNLSPGEQLGMAGIGRKKA | not failed
13 | MADIRVTHEAQVTVISFPAVFQRLRETEVEQIASTFLAAMQGAQPRKVLIDLEGVEFFGSSFIELLVRGWKRIKEDQQGVFALCSVSPYCVEVLQVTHIDEVWPRYSTKQEALLAMAS | not failed
14 | MERLKIQVLVDNNTYIDRYFVGEPAVSYYIEIDGNRILFDSGYSDVFISNAEKLNIDLGNLTHVVFSHGHNDHTRGIQFLENRYDLSTVELVSHPNCFIPRKHGEKSIGAPFSAEEIKNIFMYNPKDKPFNLSKNCVFLGEIPSINDFEKRAKIGKCKIGDLWEDDYVLDDSAIVCKTDKGIFIVTGCSHSGICNIVEYAKKVCGDDRVIGILGGFHLFELNNRLDSTIQYLDKEEIRMLYPCHCVSFKVKAKMNEILNINEVGVGLTISILEHHHHHH | not failed
15 | GMQGFFFNTRREIFKDKRVREALFYAFDFEWANKNLFFSQYKRTTSFFSNSIYASPPLPSPEEKALLAPYEKSLDERVFKEPYVVPRTDGVDVLGYNLRENLKYAQKLLESTGFSYKNMRLVDKNNKPFSFTLLLNSPAFERLALAFAKNLRVLGIEMKIQRVDLSQYVNRIKSYDFDMIVGVIGQSSFPGNEQRFYFGSLSAKEKGTRNYAGISSKAVDDLIEKIINAKDYKEQLAAIQAMDRVLLWGFYVIPHFYLP | failed
16 | MSVLDLPELALDCILDLLPPSGLCSMARVCSSLRERCVSDHLWEKHLKTKWGKILGPAAHREWQCYISSSTYHLDSPHHQTGNLGFAKIISLIRSLSSVFREDKQRRGYASSLPLDSSMSCYLSLETGRFWFPAQVYNRENGHVGFMLSCYDAELSYDTHTDTFQARYPPHGRRASAIEKGVTWDRIRAAPIDASPHLLHVSDSLKELKPGDHIEIQWRRNKEFPYGK | failed
17 | MAIATARAGGKETGTEQMYILQVTNSRSTMSKMSNVKEVNASTAFSMIKKGALLVDVRETREINRKAFGVSDYLSVPMSRFQSSLHEIPAERKVILACHSGNRSSIASRILVNSGHRKVHNLQHGIISWEREGLPVRKKESPSPLTMLFQMFRKEA | failed
18 | MKKITKMVISSVLATVLMTACSQSSQNGQSDVKHIGILQYVEHPSLTATRKGFIKELAKEGYKDGKNIKIEYKNAQGDQSNIQSISEKLIKDNKLVLGIATPAAQSLTTVSTETPILFTAVTDPVSAELVKSMKKPEGLATGTSDMSPIKKQVSLLRKVMPKVKRVGIMYTTSERNSEVQVKQAKKIFQEAGIKTSVKGISSTNDVQDTAKSLMSKTEVIFVPTDNIIASSVTLLGNLSKELKVPVVGGSADMVPSGLLFSYGADYEALGRQTARQAVKILKGKDVAKVPSEYPQNLKVVVNEDMAKELGIDVSSIKNNK | failed
19 | MPSDGLPKNLEPLAAGDPATIGPYVLVGRLGSGGMGTVYLGRAPEKGTHVAIKVIRPELAFDEATRARFRDEMENARKVASFCTAKVLDHGTFQNRPYMVTEYIAGTALAEHIAEHGPLDSGTLHGFALGVAAALAAIHKAGLVHRDLKPANVLLSLSGPRVIDFGIARALNTSTSHTQTGIVMGSPGWMAPEQLLEEKVTTKADIFAWGCLVAFAGNGRHPFGNGDAMTLGKRMLFAEPDIGNLDPPLDRLVARALAKDPDQRPTAQELLLELAGGTDSNDTNDVVSHALHQSWRPNFPPMPPGYPPPSPQAHSGMPGPQAQAQAPGQTTIAPQPYAHPQQGGPGPMPPQAAGPQGGPQGGPQSPPMPQRPGPQASHHTGQIPVVPPTTGRQPPRSPAAQGSSGGPQARPYVPPNTLPPHRPLRPDSSRSRLLIVFAVLGAVLLAVVLVFGLVFFQDWFSSTSDTNPPGQGQEQQSSAPKEDPDDESDKSDTQAADPQAGESLRFDLLDWYCGNQVLDRPLIVNGGEYCVAEIEAHNSANYPVKFRHDLQILAHASGEQTKADAPLHGEGADPLWAGPIQPGDTVRGYLVFIVHSELTPEVLILRSTVDSPGQQIEIPSGQPA | failed
20 | METAICGRLALAPSSLFNSKSGDKHLVSKGPCVNRSILMTLSTSAALGKGGGVLDKPIIEKTTPGRESEFDLRKSKKIAPPYRVILHNDNFNKREYVVQVLMKVIPGMTVDNAVNIMQEAHINGLAVVIVCAQADAEQHCMQLRGNGLLSSVEPDGGGC | failed
21 | MTKNDNTIFKDIYQLWFTQYKQTVKESTWVTTQRLFRLHILPIFSDYRIAKISIKDCQKAINQWFNAGLAKYHTLMNYVAKVLDYAINIDLISENPAKRVIVPVNKNDRSLEHHHHHH | not failed
